The values that follow come from publication PMC4072051.

In the test the target is Recombinant TssK (SMA2253), purified from S. marcescens, His6 tag removed (Serratia marcescens Db10). Nature of the test: AUC; sedimentation velocity, 4°C, 49000 rev./min, 50 mM Tris/HCl pH 7.5, 250 mM NaCl; Peak 1 at 0.2 to 0.7 mg/ml, Peak 2 at 0.2 and 0.5 mg/ml; c(s) analysis in SEDFIT.

Several values for one entry are separate records, joined by “and”; a condition that tells them apart may be missing. Identical values can stand only once.

Usually stoichiometry N stands for the number of molecules, sites or subunits per partner or assembly. In the case of “Recombinant TssK (SMA2253), purified from S. marcescens, His6 tag removed (natural protein)”, the stoichiometry N was 3 and 6.
